Assay results: article PMC2912413

Biological target: alternative Replication Protein A complex (RPA1, RPA4 and RPA3) (human) (UniProt P27694)
Test: ELISA

Chain of alternative Replication Protein A complex (RPA1, RPA4 and RPA3) (human) (P27694 whole entry, chain 1 of 3): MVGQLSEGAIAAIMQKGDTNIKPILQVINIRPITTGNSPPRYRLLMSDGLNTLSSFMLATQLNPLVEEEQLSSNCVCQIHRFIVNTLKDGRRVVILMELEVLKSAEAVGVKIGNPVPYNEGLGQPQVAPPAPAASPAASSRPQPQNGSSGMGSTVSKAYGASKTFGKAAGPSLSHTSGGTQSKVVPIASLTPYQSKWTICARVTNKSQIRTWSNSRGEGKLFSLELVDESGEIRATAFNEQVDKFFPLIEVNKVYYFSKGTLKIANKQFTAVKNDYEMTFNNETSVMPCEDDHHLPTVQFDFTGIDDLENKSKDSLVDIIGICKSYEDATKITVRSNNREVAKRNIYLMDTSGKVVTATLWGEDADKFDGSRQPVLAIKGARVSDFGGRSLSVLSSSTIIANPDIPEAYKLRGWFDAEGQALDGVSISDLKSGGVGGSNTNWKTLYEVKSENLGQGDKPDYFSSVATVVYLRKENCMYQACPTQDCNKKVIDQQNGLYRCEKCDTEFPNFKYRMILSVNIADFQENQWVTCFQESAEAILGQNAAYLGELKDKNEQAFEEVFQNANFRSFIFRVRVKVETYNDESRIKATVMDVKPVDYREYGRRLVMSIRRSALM
Chain of alternative Replication Protein A complex (RPA1, RPA4 and RPA3) (human) (Q13156 whole entry, chain 2 of 3, further chain): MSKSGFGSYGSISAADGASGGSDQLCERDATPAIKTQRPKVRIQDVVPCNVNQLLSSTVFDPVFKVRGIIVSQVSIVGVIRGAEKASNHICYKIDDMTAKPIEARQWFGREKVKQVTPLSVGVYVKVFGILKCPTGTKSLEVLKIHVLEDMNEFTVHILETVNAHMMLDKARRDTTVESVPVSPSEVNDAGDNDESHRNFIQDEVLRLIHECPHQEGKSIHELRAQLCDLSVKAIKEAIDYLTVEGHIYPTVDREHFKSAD
Chain of alternative Replication Protein A complex (RPA1, RPA4 and RPA3) (human) (P35244 whole entry, chain 3 of 3, further chain): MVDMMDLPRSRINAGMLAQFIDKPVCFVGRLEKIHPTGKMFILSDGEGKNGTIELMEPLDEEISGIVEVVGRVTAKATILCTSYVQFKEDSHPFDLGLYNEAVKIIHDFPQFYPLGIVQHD

human DNA polymerase α/primase complex (from UniProt P09884 1-1462; Q14181 1-598; P49643 1-509; P49642 1-420)
percent decrease of the ELISA interaction compared to RPA: 75%
